Km, Vmax and kcat data for three proteins are collected here from paper PMC9307952, “Lipoate protein ligase B primarily recognizes the C8-phosphopantetheine arm of its donor substrate and weakly binds the acyl carrier protein” (The Journal of Biological Chemistry, 2022).

For orientation: Km means the substrate concentration at which the rate is half of its maximum. Broadly, the Vmax is the top rate of the reaction or transport when substrate is in excess. Broadly, the kcat is the number of substrate molecules converted per active site and unit of time at saturation.

B1: E. coli LipB (EcLipB) (Escherichia coli K-12; G72A/G73A) (protein)
chain: MYQDKILVRQLGLQPYEPISQAMHEFTDTRDDSTLDEIWLVEHYPVFTQGQAGKAEHILMPGDIPVIQSDRAAQVTYHGPGQQVMYVLLNLKRRKLGVRELVTLLEQTVVNTLAELGIEAHPRADAPGVYVGEKKICSLGLRIRRGCSFHGLALNVNMDLSPFLRINPCGYAGMEMAKISQWKPEATTNNIAPRLLENILALLNNPDFEYITA
B2: E. coli LipB (EcLipB) (Escherichia coli K-12; K135A) (protein)
chain: MYQDKILVRQLGLQPYEPISQAMHEFTDTRDDSTLDEIWLVEHYPVFTQGQAGKAEHILMPGDIPVIQSDRGGQVTYHGPGQQVMYVLLNLKRRKLGVRELVTLLEQTVVNTLAELGIEAHPRADAPGVYVGEKAICSLGLRIRRGCSFHGLALNVNMDLSPFLRINPCGYAGMEMAKISQWKPEATTNNIAPRLLENILALLNNPDFEYITA
B3: E. coli LipB (EcLipB) (Escherichia coli K-12; R71A) (protein)
chain: MYQDKILVRQLGLQPYEPISQAMHEFTDTRDDSTLDEIWLVEHYPVFTQGQAGKAEHILMPGDIPVIQSDAGGQVTYHGPGQQVMYVLLNLKRRKLGVRELVTLLEQTVVNTLAELGIEAHPRADAPGVYVGEKKICSLGLRIRRGCSFHGLALNVNMDLSPFLRINPCGYAGMEMAKISQWKPEATTNNIAPRLLENILALLNNPDFEYITA

Substrate in the series: CCCCCCCC(=O)SCCNC(=O)CCNC(=O)[C@H](O)C(C)(C)COP(=O)(O)OP(=O)(O)OC[C@H]1O[C@@H](n2cnc3c(N)ncnc32)[C@H](O)[C@@H]1OP(=O)(O)O
Put plainly: purified protein. Particulars: 5 μM LipB, 25 μM E. coli GcvH as acceptor, 0-160 μM C8-CoA, 50 mM Tris-HCl, 200 mM NaCl, pH 8.0, 30 °C.
Consider B1, for which the Km worked out at 6.71 ± 0.98 µM, the maximum rate (Vmax) came out at 0.32 µmol/min and the kcat came out at 0.001 s⁻¹.
For B2, the Km turned out to be 42.37 ± 4.58 µM, the maximum rate (Vmax) was determined as 0.2 µmol/min and the kcat came out at 0.000667 s⁻¹.
On the same counts, the results for B3 are 34.39 ± 8.8 µM, 0.26 µmol/min and 0.000833 s⁻¹.
